T1: NHERF3_2, Q5T2W1
T1 sequence (Q5T2W1 129-225, limits assumed, looked up): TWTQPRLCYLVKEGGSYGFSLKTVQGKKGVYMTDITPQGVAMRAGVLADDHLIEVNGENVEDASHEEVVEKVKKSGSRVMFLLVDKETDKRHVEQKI

T2: LIN7C, Q9NUP9
T2 sequence (Q9NUP9 88-185, limits assumed, looked up): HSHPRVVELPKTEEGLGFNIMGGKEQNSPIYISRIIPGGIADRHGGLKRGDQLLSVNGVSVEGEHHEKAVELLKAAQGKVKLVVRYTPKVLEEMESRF

T3: SYNPO2L, Q9H987
T3 sequence (Q9H987 1-98, limits assumed, looked up): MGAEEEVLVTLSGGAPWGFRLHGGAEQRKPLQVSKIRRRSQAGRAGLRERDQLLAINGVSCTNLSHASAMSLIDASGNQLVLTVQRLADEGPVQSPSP

T4: PDLIM3, Q53GG5
T4 sequence (Q53GG5 1-94, limits assumed, looked up): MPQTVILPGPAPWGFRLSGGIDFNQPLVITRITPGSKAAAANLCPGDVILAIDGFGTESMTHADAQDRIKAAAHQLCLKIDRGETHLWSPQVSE

T5: PARD6G, Q9BYG4
T5 sequence (Q9BYG4 153-261, limits assumed, looked up): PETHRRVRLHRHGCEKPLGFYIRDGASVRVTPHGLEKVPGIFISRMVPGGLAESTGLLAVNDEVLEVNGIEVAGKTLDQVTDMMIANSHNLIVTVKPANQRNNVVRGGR

T6: MPDZ_7, O75970
T6 sequence (O75970 1146-1253, limits assumed, looked up): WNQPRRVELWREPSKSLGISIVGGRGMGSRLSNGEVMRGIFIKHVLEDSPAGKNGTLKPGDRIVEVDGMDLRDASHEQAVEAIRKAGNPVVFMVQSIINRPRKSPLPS

T7: PDZD2_1, O15018
T7 sequence (O15018 80-192, limits assumed, looked up): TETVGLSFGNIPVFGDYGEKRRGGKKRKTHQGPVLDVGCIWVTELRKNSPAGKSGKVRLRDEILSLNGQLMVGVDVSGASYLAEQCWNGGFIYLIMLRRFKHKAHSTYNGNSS

T8: USH1C_1, Q9Y6N9
T8 sequence (Q9Y6N9 82-179, limits assumed, looked up): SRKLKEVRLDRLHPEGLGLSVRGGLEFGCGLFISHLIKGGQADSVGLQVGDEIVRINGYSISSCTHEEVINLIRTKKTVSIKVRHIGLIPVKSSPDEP

T9: MPP5, Q8N3R9
T9 sequence (Q8N3R9 251-346, limits assumed, looked up): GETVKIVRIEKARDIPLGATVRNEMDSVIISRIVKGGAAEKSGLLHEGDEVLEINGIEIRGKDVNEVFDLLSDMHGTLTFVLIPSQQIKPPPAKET

T10: DFNB31_2, Q9P202
T10 sequence (Q9P202 274-371, limits assumed, looked up): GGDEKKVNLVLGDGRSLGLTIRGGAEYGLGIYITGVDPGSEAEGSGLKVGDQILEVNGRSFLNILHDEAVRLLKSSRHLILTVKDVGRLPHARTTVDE

T11: PDZD11, Q5EBL8
T11 sequence (Q5EBL8 42-139, limits assumed, looked up): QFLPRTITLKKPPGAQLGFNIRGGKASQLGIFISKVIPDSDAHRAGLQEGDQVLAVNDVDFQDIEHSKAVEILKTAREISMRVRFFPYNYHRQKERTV

T12: MPDZ_3, O75970
T12 sequence (O75970 372-473, limits assumed, looked up): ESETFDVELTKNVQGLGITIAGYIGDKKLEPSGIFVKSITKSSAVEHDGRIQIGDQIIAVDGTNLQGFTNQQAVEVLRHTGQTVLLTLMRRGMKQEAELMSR


The binders below were run against T1, NHERF3_2, Q5T2W1 (assay: holdup assay). Details: plain residues with an end cap or a label only (N-terminal biotin on a linker: ttds).
Design: key: below the threshold = too weak to quantify, mostly under pKd 3.1 to 4

Row | Binder | pKd
1 | DEDQHTQITKV [PTEN, P60484] | below the threshold
2 | TGDTLEKFVEGL [CBP, Q92793] | below the threshold

The binders below were run against T2, LIN7C, Q9NUP9 (assay: holdup assay). Details: plain residues with an end cap or a label only (N-terminal biotin on a linker: ttds).
Design: key: below the threshold = too weak to quantify, mostly under pKd 3.1 to 4

Row | Binder | pKd
3 | DEDQHTQITKV [PTEN, P60484] | below the threshold
4 | TGDTLEKFVEGL [CBP, Q92793] | below the threshold

The binders below were run against DVL2, O14641 (assay: holdup assay). Details: plain residues with an end cap or a label only (N-terminal biotin on a linker: ttds).
Design: key: below the threshold = too weak to quantify, mostly under pKd 3.1 to 4

Sequence of DVL2, O14641 (O14641 260-359): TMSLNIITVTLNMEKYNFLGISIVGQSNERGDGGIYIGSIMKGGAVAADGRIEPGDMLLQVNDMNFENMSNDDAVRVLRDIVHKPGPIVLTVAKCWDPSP

Row | Binder | pKd
5 | DEDQHTQITKV [PTEN, P60484] | below the threshold
6 | TGDTLEKFVEGL [CBP, Q92793] | below the threshold

What follows are binders tested against T3, SYNPO2L, Q9H987 (assay: holdup assay). Details: plain residues with an end cap or a label only (N-terminal biotin on a linker: ttds).
Design: key: below the threshold = too weak to quantify, mostly under pKd 3.1 to 4

Row | Binder | pKd
7 | DEDQHTQITKV [PTEN, P60484] | below the threshold
8 | TGDTLEKFVEGL [CBP, Q92793] | below the threshold

The binders below were run against T4, PDLIM3, Q53GG5 (assay: holdup assay). Details: plain residues with an end cap or a label only (N-terminal biotin on a linker: ttds).
Design: key: below the threshold = too weak to quantify, mostly under pKd 3.1 to 4

Row | Binder | pKd
9 | DEDQHTQITKV [PTEN, P60484] | below the threshold
10 | TGDTLEKFVEGL [CBP, Q92793] | below the threshold

Each binder was assayed against Inadl_7, Q8NI35 (assay: holdup assay). Details: plain residues with an end cap or a label only (N-terminal biotin on a linker: ttds).
Design: key: below the threshold = too weak to quantify, mostly under pKd 3.1 to 4

Sequence of Inadl_7, Q8NI35 (Q8NI35 1219-1332): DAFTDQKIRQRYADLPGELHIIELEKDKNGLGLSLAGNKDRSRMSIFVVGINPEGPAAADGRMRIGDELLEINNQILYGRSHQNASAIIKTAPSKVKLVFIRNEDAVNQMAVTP

Row | Binder | pKd
11 | DEDQHTQITKV [PTEN, P60484] | 3.65
12 | TGDTLEKFVEGL [CBP, Q92793] | below the threshold

What follows are binders tested against T5, PARD6G, Q9BYG4 (assay: holdup assay). Details: plain residues with an end cap or a label only (N-terminal biotin on a linker: ttds).
Design: key: below the threshold = too weak to quantify, mostly under pKd 3.1 to 4

Row | Binder | pKd
13 | DEDQHTQITKV [PTEN, P60484] | below the threshold
14 | TGDTLEKFVEGL [CBP, Q92793] | 3.82

The binders below were run against T6, MPDZ_7, O75970 (assay: holdup assay). Details: plain residues with an end cap or a label only (N-terminal biotin on a linker: ttds).
Design: key: below the threshold = too weak to quantify, mostly under pKd 3.1 to 4

Row | Binder | pKd
15 | DEDQHTQITKV [PTEN, P60484] | 3.71
16 | TGDTLEKFVEGL [CBP, Q92793] | below the threshold

These binders were tested against T7, PDZD2_1, O15018 (assay: holdup assay). Details: plain residues with an end cap or a label only (N-terminal biotin on a linker: ttds).
Design: key: below the threshold = too weak to quantify, mostly under pKd 3.1 to 4

Row | Binder | pKd
17 | DEDQHTQITKV [PTEN, P60484] | below the threshold
18 | TGDTLEKFVEGL [CBP, Q92793] | below the threshold

Each binder was assayed against T8, USH1C_1, Q9Y6N9 (assay: holdup assay). Details: plain residues with an end cap or a label only (N-terminal biotin on a linker: ttds).
Design: key: below the threshold = too weak to quantify, mostly under pKd 3.1 to 4

Row | Binder | pKd
19 | DEDQHTQITKV [PTEN, P60484] | below the threshold
20 | TGDTLEKFVEGL [CBP, Q92793] | below the threshold

Each binder was assayed against T9, MPP5, Q8N3R9 (assay: holdup assay). Details: plain residues with an end cap or a label only (N-terminal biotin on a linker: ttds).
Design: key: below the threshold = too weak to quantify, mostly under pKd 3.1 to 4

Row | Binder | pKd
21 | DEDQHTQITKV [PTEN, P60484] | below the threshold
22 | TGDTLEKFVEGL [CBP, Q92793] | below the threshold

These binders were tested against T10, DFNB31_2, Q9P202 (assay: holdup assay). Details: plain residues with an end cap or a label only (N-terminal biotin on a linker: ttds).
Design: key: below the threshold = too weak to quantify, mostly under pKd 3.1 to 4

Row | Binder | pKd
23 | DEDQHTQITKV [PTEN, P60484] | 3.62
24 | TGDTLEKFVEGL [CBP, Q92793] | below the threshold

The binders below were run against MAGI3_6, Q5TCQ9 (assay: holdup assay). Details: plain residues with an end cap or a label only (N-terminal biotin on a linker: ttds).
Design: key: below the threshold = too weak to quantify, mostly under pKd 3.1 to 4

Sequence of MAGI3_6, Q5TCQ9 (Q5TCQ9 1014-1103): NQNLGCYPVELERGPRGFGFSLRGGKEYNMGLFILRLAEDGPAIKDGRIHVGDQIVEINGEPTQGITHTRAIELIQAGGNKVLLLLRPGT

Row | Binder | pKd
25 | DEDQHTQITKV [PTEN, P60484] | below the threshold
26 | TGDTLEKFVEGL [CBP, Q92793] | below the threshold

What follows are binders tested against CNKSR3, Q6P9H4 (assay: holdup assay). Details: plain residues with an end cap or a label only (N-terminal biotin on a linker: ttds).
Design: key: below the threshold = too weak to quantify, mostly under pKd 3.1 to 4

Sequence of CNKSR3, Q6P9H4 (Q6P9H4 203-303): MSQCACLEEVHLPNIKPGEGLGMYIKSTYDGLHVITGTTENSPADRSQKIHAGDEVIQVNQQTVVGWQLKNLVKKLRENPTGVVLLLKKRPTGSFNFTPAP

Row | Binder | pKd
27 | DEDQHTQITKV [PTEN, P60484] | below the threshold
28 | TGDTLEKFVEGL [CBP, Q92793] | below the threshold

These binders were tested against MAGI3_4, Q5TCQ9 (assay: holdup assay). Details: plain residues with an end cap or a label only (N-terminal biotin on a linker: ttds).
Design: key: below the threshold = too weak to quantify, mostly under pKd 3.1 to 4

Sequence of MAGI3_4, Q5TCQ9 (Q5TCQ9 716-815): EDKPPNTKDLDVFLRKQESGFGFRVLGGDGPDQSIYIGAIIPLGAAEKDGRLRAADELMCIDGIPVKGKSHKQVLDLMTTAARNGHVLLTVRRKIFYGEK

Row | Binder | pKd
29 | DEDQHTQITKV [PTEN, P60484] | below the threshold
30 | TGDTLEKFVEGL [CBP, Q92793] | below the threshold

What follows are binders tested against T11, PDZD11, Q5EBL8 (assay: holdup assay). Details: plain residues with an end cap or a label only (N-terminal biotin on a linker: ttds).
Design: key: below the threshold = too weak to quantify, mostly under pKd 3.1 to 4

Row | Binder | pKd
31 | DEDQHTQITKV [PTEN, P60484] | below the threshold
32 | TGDTLEKFVEGL [CBP, Q92793] | below the threshold

What follows are binders tested against T12, MPDZ_3, O75970 (assay: holdup assay). Details: plain residues with an end cap or a label only (N-terminal biotin on a linker: ttds).
Design: key: below the threshold = too weak to quantify, mostly under pKd 3.1 to 4

Row | Binder | pKd
33 | DEDQHTQITKV [PTEN, P60484] | below the threshold
34 | TGDTLEKFVEGL [CBP, Q92793] | 4.11

Each binder was assayed against PDZRN4_2, Q6ZMN7 (assay: holdup assay). Details: plain residues with an end cap or a label only (N-terminal biotin on a linker: ttds).
Design: key: below the threshold = too weak to quantify, mostly under pKd 3.1 to 4

Sequence of PDZRN4_2, Q6ZMN7 (Q6ZMN7 389-498): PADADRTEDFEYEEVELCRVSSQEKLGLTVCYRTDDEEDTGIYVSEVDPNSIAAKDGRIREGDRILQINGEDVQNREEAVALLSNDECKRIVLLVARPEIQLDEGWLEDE

Row | Binder | pKd
35 | DEDQHTQITKV [PTEN, P60484] | below the threshold
36 | TGDTLEKFVEGL [CBP, Q92793] | below the threshold

The binders below were run against PTPN13_2, Q12923 (assay: holdup assay). Details: plain residues with an end cap or a label only (N-terminal biotin on a linker: ttds).
Design: key: below the threshold = too weak to quantify, mostly under pKd 3.1 to 4

Sequence of PTPN13_2, Q12923 (Q12923 1363-1462): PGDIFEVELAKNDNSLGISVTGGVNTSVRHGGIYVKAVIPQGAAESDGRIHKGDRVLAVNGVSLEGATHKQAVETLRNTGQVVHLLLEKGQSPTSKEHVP

Row | Binder | pKd
37 | DEDQHTQITKV [PTEN, P60484] | 3.81
38 | TGDTLEKFVEGL [CBP, Q92793] | below the threshold

What follows are binders tested against NHERF2_1, Q15599 (assay: holdup assay). Details: plain residues with an end cap or a label only (N-terminal biotin on a linker: ttds).
Design: key: below the threshold = too weak to quantify, mostly under pKd 3.1 to 4

Sequence of NHERF2_1, Q15599 (Q15599 9-91): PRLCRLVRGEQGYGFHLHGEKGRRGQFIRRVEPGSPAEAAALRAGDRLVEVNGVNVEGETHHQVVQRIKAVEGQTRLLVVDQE

Row | Binder | pKd
39 | DEDQHTQITKV [PTEN, P60484] | below the threshold
40 | TGDTLEKFVEGL [CBP, Q92793] | 3.84

— PMC9482650, “Quantitative fragmentomics allow affinity mapping of interactomes” (Nature Communications, 2022)
